Patent US20180251524A1 (REGENTS OF THE UNIVERSITY OF MINNESOTA, published 2018)
Positions count from the first letter of the chain named. Names and notes keep the numbering of the source.

Key:
[1] = target: T1, epithelial cell adhesion molecule (EpCAM) on EpCAM-expressing MCF-7 cells (human, UniProt P16422 24-314); test: flow cytometry titration of unmodified parent ligand on MCF-7 cells
T1 construct: whole, on cells; also called cellular EpCAM; EpCAM+ MCF-7 cells
T1 sequence (looked up): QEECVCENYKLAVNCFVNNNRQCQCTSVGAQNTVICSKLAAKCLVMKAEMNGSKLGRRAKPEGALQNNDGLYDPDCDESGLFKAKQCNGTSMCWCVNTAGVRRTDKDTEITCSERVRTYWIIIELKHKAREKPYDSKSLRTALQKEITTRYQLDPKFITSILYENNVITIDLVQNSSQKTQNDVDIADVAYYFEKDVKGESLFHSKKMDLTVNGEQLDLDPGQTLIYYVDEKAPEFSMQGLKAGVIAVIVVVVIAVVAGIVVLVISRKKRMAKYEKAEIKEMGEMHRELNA

[2] = target: T1, epithelial cell adhesion molecule …; test: flow cytometry titration of soluble clone on MCF-7 cells
[3] = target: T1, epithelial cell adhesion molecule …; test: flow cytometry, multiple affinity titrations on EpCAM+ MCF-7 cells
[4] = target: T1, epithelial cell adhesion molecule …; test: flow cytometry titration of biotinylated ligand on EpCAM+ MCF-7 cells
[5] = target: T1, epithelial cell adhesion molecule …; test: flow cytometry titration on EpCAM+ MCF-7 cells
[6] = target: T1, epithelial cell adhesion molecule …; test: flow cytometry titration on EpCAM-expressing MCF-7 cells, anti-MYC detection; apparent (multivalent) Kd
Description: The apparent affinity and selectivity of the Fn3 and mSA/Fn3 CSANs was determined by flow cytometry, as previously described (Stern, et al., ACS Combinatorial Science 2017, 19 (5), 315-323). Briefly, EpCAM-expressing MCF-7 cells and EpCAM-negative U-87 MG cells were cultured to approximately 80% confluency, detached, and counted, as described above. Aliquots of 5×10⁴ cells were washed with PBSA (PBS with 0.1% w/v bovine serum albumin) and labeled with varying concentrations of Fn3 or mSA/Fn3 CSANs for ≥90 min at 4° C. Cells were then pelleted (500 g, 5 min, 4° C.) and resuspended in 50 μL anti-MYC (clone 9E10) Alexa Fluor 647 conjugate (Thermo Fisher Scientific, Cat: MA1-980-A647; 5 μg/mL in PBSA). After incubating at 4° C. for ≥30 min in the dark, cells were again pelleted and washed thrice with 1 mL cold PBSA before the fluorescence was analyzed on an LSR II flow cytometer (BD Biosciences).

[7] = target: T1, epithelial cell adhesion molecule …; test: flow cytometry on EpCAM+ MCF-7 cells

B1: EpCAM-binding fibronectin clone C8 (parent ligand) (designed binder)
chain: SSDSPRNLEVTNATPNSLTISWDYPNSASYYRITYSETGGNSPSQEFTVPGNTYNATISGLKPGQDYIITVYAVTYRDNYSYSNLISINYRTEIDKPSQHHHHHH
notes: also called C08
- Kd [1]: 11 nM

B2: EpCAM-binding fibronectin (Fn3) clone C5 (designed binder)
chain: B1 chain with Y24N, P25S, S27Y, S36G, F47L, N52S, T92S
notes: Soluble domain made in E. coli; also called Fn 3.4.5; Fn C5
- Kd [2]: 17 nM

B3: EpCAM-binding fibronectin clone B22 (parent ligand) (designed binder)
chain: B1 chain with Y24D, P25Y, N26T, S36G, I58V, K62R, L85P
- Kd [1]: 1100 nM

B4: EpCAM-binding fibronectin clone C10 (parent ligand) (designed binder)
chain: B1 chain with Y24D, N26D, S27F, S36G, N41S, N55S, Q65R, Y67H, I68T, L85P
- Kd [1]: 25 nM

B5: NODAGA-Fn-C5 (Fn_C5_G65C conjugated to maleimide-NODAGA) (designed binder)
chain: B1 chain with Y24N, P25S, S27Y, S36G, F47L, N52S, G64C, T92S
modifications: maleimide-NODAGA on the engineered cysteine (G65C, position as in SEQ ID NO: 1)
notes: Single NODAGA per domain by MALDI-MS; also called Fn 3.4.5 G65C NODAGA conjugate
- Kd [3]: 14 nM

B6: non-specifically biotinylated fibronectin clone B22 (designed binder)
chain: B1 chain with Y24D, P25Y, N26T, S36G, I58V, K62R, L85P
modifications: non-specific biotinylation of primary amines (N-terminus, lysines) with EZ-Link Sulfo-NHS-Biotin
notes: also called biotin-B22
- Kd [4]: 1700 nM

B7: non-specifically biotinylated fibronectin clone C10 (designed binder)
chain: B1 chain with Y24D, N26D, S27F, S36G, N41S, N55S, Q65R, Y67H, I68T, L85P
modifications: non-specific biotinylation of primary amines (N-terminus, lysines) with EZ-Link Sulfo-NHS-Biotin
notes: also called biotin-C10
- Kd [4]: 9.7 nM

B8: non-specifically biotinylated fibronectin clone C8 (designed binder)
chain: B1 chain
modifications: non-specific biotinylation of primary amines (N-terminus, lysines) with EZ-Link Sulfo-NHS-Biotin
notes: also called biotin-C08; biotin-C8
- Kd [4]: 5.7 nM

B9: mixed, reduced valency CSANs of 1DD-FnC5-v4 and 1DD-FnNT-v4 subunits (designed binder)
chain 1: MGEQKLISEEDLGGSGGGSGGGISLIAALAVDRVIGMENAMPWNLPADLAWFKRNTLNKPVIMGRHTWESIGRPLPGRKNIILSSQPGTDDRVTWVKSVDEAIAAAGDVPEIMVIGGGRVYEQFLPKAQKLYLTHIDAEVEGDTHFPDYEPDDWESVFSEFHDADAQNSHSYSFEILERRGGISLIAALAVDRVIGMENAMPWNLPADLAWFKRNTLNKPVIMGRHTWESIGRPLPGRKNIILSSQPGTDDRVTWVKSVDEAIAAAGDVPEIMVIGGGRVYEQFLPKAQKLYLTHIDAEVEGDTHFPDYEPDDWESVFSEFHDADAQNSHSYSFEILERRGELGGSGGGGSGGGGSGGGGSGGGGSGGGGSGGGGSGGGGSGGGGSGGASSSDSPRNLEVTNATPNSLTISWDNSNYASYYRITYGETGGNSPSQELTVPGSTYNATISGLKPGQDYIITVYAVTYRDNYSYSNLISINYRSEIDKPSQGSHHHHHH
chain 2: MGEQKLISEEDLGGSGGGSGGGISLIAALAVDRVIGMENAMPWNLPADLAWFKRNTLNKPVIMGRHTWESIGRPLPGRKNIILSSQPGTDDRVTWVKSVDEAIAAAGDVPEIMVIGGGRVYEQFLPKAQKLYLTHIDAEVEGDTHFPDYEPDDWESVFSEFHDADAQNSHSYSFEILERRGGISLIAALAVDRVIGMENAMPWNLPADLAWFKRNTLNKPVIMGRHTWESIGRPLPGRKNIILSSQPGTDDRVTWVKSVDEAIAAAGDVPEIMVIGGGRVYEQFLPKAQKLYLTHIDAEVEGDTHFPDYEPDDWESVFSEFHDADAQNSHSYSFEILERRGELGGSGGGGSGGGGSGGGGSGGGGSGGGGSGGGGSGGGGSGGGGSGGASSSDSPRNLEVTNATPNSLTISWDAPAVTVRYYRITYGETGGNSPSQEFTVPGSKSTATISGLKPGQDYTITVYAVTGRDGSPASSKPISINYRTEIDKPSQGSHHHHHH
notes: Nanoring co-assembled with the chemical dimerizer bis-methotrexate
- binding result [5]: binds

B10: mixed, reduced valency CSANs of 1DD-FnB22-v4 and 1DD-FnNT-v4 subunits (designed binder)
chain 1: B9 chain 1 with N414D, S415Y, N416T, Y417S, L437F, S442N, I448V, K452R, L475P, S482T
chain 2: B9 chain 2
notes: as for B9
- binding result [5]: binds

B11: Fn3 CSANs (DHFR^2-Fn3 fusion proteins with clone C5, oligomerized with bisMTX) (designed binder)
chain: MGEQKLISEEDLGGSGGGSGGGISLIAALAVDRVIGMENAMPWNLPADLAWFKRNTLNKPVIMGRHTWESIGRPLPGRKNIILSSQPGTDDRVTWVKSVDEAIAAAGDVPEIMVIGGGRVYEQFLPKAQKLYLTHIDAEVEGDTHFPDYEPDDWESVFSEFHDADAQNSHSYSFEILERRGGISLIAALAVDRVIGMENAMPWNLPADLAWFKRNTLNKPVIMGRHTWESIGRPLPGRKNIILSSQPGTDDRVTWVKSVDEAIAAAGDVPEIMVIGGGRVYEQFLPKAQKLYLTHIDAEVEGDTHFPDYEPDDWESVFSEFHDADAQNSHSYSFEILERRGELGGGGSGGGGSGGGGSASSSDSPRNLEVTNATPNSLTISWDNSNYASYYRITYGETGGNSPSQELTVPGSTYNATISGLKPGQDYIITVYAVTYRDNYSYSNLISINYRSEIDKPSQGSHHHHHH
notes: Multivalent nanoring; also called EpCAM-targeted Fn3 CSANs; monospecific Fn3 CSANs
- Kd [6]: 21 nM

B12: bispecific mSA/Fn3 CSANs (co-assembled mSA-DHFR^2 and DHFR^2-Fn3 subunits) (designed binder)
chain 1: B11 chain
chain 2: MAEAGITGTWYNQSGSTFTVTAGADGNLTGQYENRAQGTGCQNSPYTLTGRYNGTKLEWRVEWNNSTENCHSRTEWRGQYQGGAEARINTQWNLTYEGGSGPATEQGQDTFTKVKELGGSGGGSGGGSGGMISLIAALAVDRVIGMENAMPWNLPADLAWFKRNTLNKPVIMGRHTWESIGRPLPGRKNIILSSQPGTDDRVTWVKSVDEAIAAAGDVPEIMVIGGGRVYEQFLPKAQKLYLTHIDAEVEGDTHFPDYEPDDWESVFSEFHDADAQNSHSYSFEILERRGMISLIAALAVDRVIGMENAMPWNLPADLAWFKRNTLNKPVIMGRHTWESIGRPLPGRKNIILSSQPGTDDRVTWVKSVDEAIAAAGDVPEIMVIGGGRVYEQFLPKAQKLYLTHIDAEVEGDTHFPDYEPDDWESVFSEFHDADAQNSHSYSFEILERRGGSGGGSGGGSGGDYKDDDDK
notes: Stochastic mixture of the two subunits oligomerized with bisMTX; also called mSA/Fn3 bispecific CSANs
- Kd [6]: 24 nM

B13: NODAGA-Fn-NT (Fn_NT_G65C non-targeted control conjugated to maleimide-NODAGA) (designed binder)
chain: SSDSPRNLEVTNATPNSLTISWDAPAVTVRYYRITYGETGGNSPSQEFTVPGSKSTATISGLKPCQDYTITVYAVTGRDGSPASSKPISINYRTEIDKPSQHHHHHH
modifications: maleimide-NODAGA on the engineered cysteine (G65C)
notes: Non-targeted scaffold with wild-type loops, G65C and RGD changed to RDG
- binding result [5]: no binding

B14: CSANs displaying only the non-binding control domain (1DD-FnNT-v4) (designed binder)
chain: B9 chain 2
notes: Nanoring oligomerized with bis-methotrexate; control; also called 1DD-FnNT-v4 CSANs
- binding result [7]: no binding
